What was measured:
[1] = Thermal stability by differential scanning calorimetry (DSC); type: physicochemical; settings: 0.4 mg/mL in PBS, scan 20° C. to 100° C. at 60° C./hr
Experimental: The thermal stability of the humanized antibody variants was assessed by differential scanning calorimetry (DSC) as described below.
400 μL of purified samples primarily at concentrations of 0.4 mg/mL in PBS were used for DSC analysis with a VP-Capillary DSC (Malvern Panalytical Inc., Westborough, MA). At the start of each DSC run, 5 buffer blank injections were performed to stabilize the baseline, and a buffer injection was placed before each sample injection for referencing. Each sample was scanned from 20° C. to 100° C. at a 60° C./hr rate, with low feedback, 8 sec filter, 3 min pre-scan thermostat, and 70 psi nitrogen pressure. The resulting thermograms were referenced and analyzed using Origin 7 software (OriginLab Corporation, Northampton, MA) to determine melting temperature (Tm) as an indicator of thermal stability.

NCI-H441 cells = test: Internalization by flow cytometry in NCI-H441 cells; type: cell-based, human; settings: antibody 10 nM
Experimental: Briefly, antibodies were fluorescently labeled by coupling to a Fab fragment AF488 conjugate targeting anti-Human IgG Fe (Jackson Immuno Research Labs, West Grove, PA; Cat. No. 109-547-008) at a 1:1 molar ratio in PBS pH 7.4 (Thermo Fisher Scientific, Waltham, MA; Cat. No. 10010-023), for 24 hours at 4° C. Cells were seeded at 50,000 cells/well in RPMI 1640, ATCC modification (Thermo Fisher Scientific, Waltham, MA) supplemented with 10% fetal bovine serum (Thermo Fisher Scientific, Waltham, MA) in 48-well plates and incubated overnight under standard culturing conditions (37° C./5% CO2) to allow attachment. […] Following incubation, cells were dissociated, washed, and surface AF488 fluorescence was quenched using an anti-AF488 antibody (Life Technologies, Carlsbad, CA; Cat. No. A-11094) at 100 nM for 30 minutes at 4° C. […] (internalized fluorescence) was detected by flow cytometry on a BD LSRFortessa™ Cell Analyzer (BD Biosciences, Franklin Lake, NJ) with 1,000 minimum events collected per well. The AF488/FITC-A GeoMean (fluorescence signal geometric mean, proportional to anti-Human Fab AF488 labelling) was calculated for the live single cell population using FlowJo™ Version 10.8.1 (BD Biosciences, Franklin Lake, NJ) and plotted using GraphPad Prism Version 9 (GraphPad Software, San Diego, CA).

[2] = biological target: T1, NaPi2b expressed on IGROV-1 cells (Homo sapiens, UniProt O95436); test: Cellular binding of antibody and ADCs to IGROV-1 cells by flow cytometry (Example 14)
T1 construct: IGROV-1 cells express endogenous NaPi2b at a high level; endogenous in cells; host or cells: IGROV-1
T1 sequence (O95436 1-690): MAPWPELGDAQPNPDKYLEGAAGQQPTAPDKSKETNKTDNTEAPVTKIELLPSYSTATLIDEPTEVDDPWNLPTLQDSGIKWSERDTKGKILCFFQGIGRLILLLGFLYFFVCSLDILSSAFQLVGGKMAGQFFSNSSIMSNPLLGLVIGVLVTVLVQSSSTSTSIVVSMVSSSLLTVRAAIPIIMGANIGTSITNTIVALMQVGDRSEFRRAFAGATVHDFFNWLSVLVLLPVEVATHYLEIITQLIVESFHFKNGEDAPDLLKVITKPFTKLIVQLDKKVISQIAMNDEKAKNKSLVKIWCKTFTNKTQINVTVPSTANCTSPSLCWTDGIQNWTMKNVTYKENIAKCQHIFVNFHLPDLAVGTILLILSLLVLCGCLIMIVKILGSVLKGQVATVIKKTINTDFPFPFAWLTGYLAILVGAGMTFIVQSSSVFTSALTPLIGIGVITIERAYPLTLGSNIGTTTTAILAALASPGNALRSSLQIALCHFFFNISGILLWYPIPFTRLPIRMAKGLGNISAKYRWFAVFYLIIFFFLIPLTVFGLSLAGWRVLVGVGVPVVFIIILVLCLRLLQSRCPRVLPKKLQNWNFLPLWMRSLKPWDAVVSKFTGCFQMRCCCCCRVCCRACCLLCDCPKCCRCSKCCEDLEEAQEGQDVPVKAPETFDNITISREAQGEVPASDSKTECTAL
Experimental: Briefly, HEK293-6e cells were transfected for ˜24 hours to transiently express human NaPi2b, cynomolgus or mouse NaPi2b, at 1 μg of DNA per 1 million cells. Following transfection, 50,000 cells per well were seeded in V-bottom 96-well plates and incubated with 200 nM of primary antibody for 18-24 hours at 4° C. to prevent internalization. Post-incubation, cells were washed and stained with anti-Human IgG Fc AF647 conjugate (Jackson Immuno Research Labs, West Grove, PA, Cat. No. 109-605-098, Lot. No. 124868) at 4° C. for 1 hour. Following staining and washing, fluorescence was detected by flow cytometry on BD LSRFortessa™ Cell Analyzer (BD Biosciences, Franklin Lake, NJ) with 10,000 minimum events collected per well. The AF647/APC-A GeoMean (fluorescence signal geometric mean, proportional to anti-Human AF647 binding) was calculated for the live singlet cell population for each primary antibody using FlowJo™ v8 software (BD Biosciences, Franklin Lake, NJ). The Bmax and Kd of each primary antibody were calculated using GraphPad Prism Version 9 (GraphPad Software, San Diego, CA)
The ability of ADCs to bind to cells expressing NaPi2b was assessed. ADCs of a representative humanized variant antibody, v29456 (H1L2), were prepared by conjugation to DL2 and DL1 as described in Example 11. Binding to endogenous high NaPi2b-expressing cell lines IGROV-1 and HCC-78 was assessed by flow cytometry according to methods described in Example 5.

B1: v29456: humanized anti-NaPi2b IgG1/kappa antibody H1L2; VH SEQ ID NO:24, VL SEQ ID NO:29 (antibody, V domains shown)
VH: QVQLVQSGAEVKKPGASVKVSCKASGFTFTSYNVHWVRQAPGQGLEWMGAISPGNGDLSYAQKFQGRVTMTRDTSTSTVYMELSSLRSEDTAVYYCARGRTGMGAVDYWGQGTLVTVSS
VL: DVQMTQSPSSLSASVGDRVTITCRASQDVYSYLNWYQQKPGKAVKLLIYYTSRLQSGVPSRFSGSGSGTDYTLTISSLQPEDFATYYCQQYNIFPWTFGQGTKLEIK
modifications: v29452, v29456, v29460 VH (H1); v29453, v29454, v29455, v29456 VL (L2)
Fab Tm [1]: 77.9 °C | Internalized Fluorescence Fold-Over Palivizumab (NCI-H441 cells; NCI-H441, 5 hrs): 2.4 fold | Internalized Fluorescence Fold-Over Palivizumab (NCI-H441 cells; NCI-H441, 24 hrs): 4.0 fold | Bmax (MFI) [2]: 78,059 MFI | Curve Hill Slope (h) [2]: 1.7 | Kd ([2]; apparent Kd): 0.65 nM
